Data: publication PMC4338441, “Non-catalytic motor domains enable processive movement and functional diversification of the kinesin-14 Kar3” (eLife, 2015)

T1: Halo-Kar3 (full-length Kar3 fused to a HaloTag) (S. cerevisiae (S288c), UniProt P17119 1-729, HaloTag TMR ligand (tetramethylrhodamine) or HaloTag Alexa488 ligand covalently bound to the HaloTag)
T1 construct: methods and legends say amino-terminal; also called Kar3-Halo; Kar3-HALO; not shown: HaloTag, N-terminal, kept
T1 sequence (looked up): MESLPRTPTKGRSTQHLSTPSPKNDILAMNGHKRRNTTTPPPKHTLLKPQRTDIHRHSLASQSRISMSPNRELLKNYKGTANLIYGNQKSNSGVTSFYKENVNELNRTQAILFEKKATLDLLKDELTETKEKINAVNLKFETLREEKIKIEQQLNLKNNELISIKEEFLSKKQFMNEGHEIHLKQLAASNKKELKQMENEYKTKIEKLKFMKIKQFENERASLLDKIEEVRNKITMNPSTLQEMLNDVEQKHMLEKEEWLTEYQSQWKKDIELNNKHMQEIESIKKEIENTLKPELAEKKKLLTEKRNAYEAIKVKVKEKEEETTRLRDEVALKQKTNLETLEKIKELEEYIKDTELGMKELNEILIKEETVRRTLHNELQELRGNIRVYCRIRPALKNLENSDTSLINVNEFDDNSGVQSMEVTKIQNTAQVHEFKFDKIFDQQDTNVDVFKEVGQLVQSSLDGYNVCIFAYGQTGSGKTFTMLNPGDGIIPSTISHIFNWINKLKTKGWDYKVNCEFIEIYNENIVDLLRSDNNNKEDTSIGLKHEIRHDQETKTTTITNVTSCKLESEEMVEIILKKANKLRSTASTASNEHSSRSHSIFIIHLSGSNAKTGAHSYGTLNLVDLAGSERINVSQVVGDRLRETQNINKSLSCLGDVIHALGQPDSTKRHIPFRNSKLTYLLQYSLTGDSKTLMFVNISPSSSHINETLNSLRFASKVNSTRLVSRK

B1: Cik1-1xFLAG (full-length Cik1, aa 1–594) (natural protein, S. cerevisiae (S288c), UniProt Q01649 1-594, looked up)
chain: MNNSKIPKLSFHSDPNNVTRDFPKTKRQKVQKREMDMILTPNNNKLNILHSSGSGIRRCYTDDTSATYTKKLTFGGDPKIIERVKNNERKVRKDIDSLLNAISEIEKESVRIHARELPAITLELDAKVKACRELQNEIDGLSTEMDLKDNQCDLQRKNVELSSKNIVSMHAVKVQEFENDLEEELSNAKREWTYKLMEVENLKPDERLTDEMRQLKTEFEEVNRKLFILQNENENECKNYKKELDKKFEIFKKVKNDARIELDGEQERLSKVLKDLQDTHGELKENIKTCRDEFNDFEKRIGEAEVNFHSMELAVVPLKKKLASTSQALTQVQEEKKQVEGEANNWKKKYVNELEKVQQELYTRQNLATSIEEIKGYTRCFAYANERQMPDEFHINYVDRCICENSGEKRVQVFDRVVLEEIHKDHKRLYNECIPFLEKYISKLINCSIIVVSQQPTAPMKKTLLKQLIEQYGENYKMTLNILHLDGSIKHSDVGLDNPTEIRDLSQDEECMNILTLDTKLGKDEESHSMNIYIGSMSTVQLNRELDDAPSVLSHILTKTKQCFVFKINAGENIEKALALAGKLKRTITLPQLD
notes: source: if needed MonoS; not shown: 1xFLAG, C-terminal, kept
B2: Cik1–Kar3 heterodimer (full-length Cik1-1xFLAG with Halo-Kar3) (complex, S. cerevisiae (S288c))
chain 1: T1 sequence (looked up)
chain 2: B1 chain
modifications: HaloTag TMR ligand or HaloTag Alexa488 ligand covalently bound to the HaloTag (imaging experiments)
notes: also called Cik1–Kar3-Halo; Cik1–Halo–Kar3; source: if needed MonoS; not shown: HaloTag, N-terminal, kept
B3: GST-Bim1^FL (natural protein, budding yeast, UniProt P40013 1-344, looked up)
chain: MSAGIGESRTELLTWLNGLLNLNYKKIEECGTGAAYCQIMDSIYGDLPMNRVKFNATAEYEFQTNYKILQSCFSRHGIEKTVYVDKLIRCKFQDNLEFLQWLKKHWIRHKDESVYDPDARRKYRPIITNNSATKPRTVSNPTTAKRSSSTGTGSAMSGGLATRHSSLGINGSRKTSVTQGQLVAIQAELTKSQETIGSLNEEIEQYKGTVSTLEIEREFYFNKLRDIEILVHTTQDLINEGVYKFNDETITGHGNGNGGALLRFVKKVESILYATAEGFEMNDGEDELNDKNLGEHGTVPNQGGYANSNGEVNGNEGSNHDVIMQNDEGEVGVSNNLIIDEETF
notes: Bim1, the EB1 homologue of budding yeast, full length; also called full-length Bim1; source: recombinant; expressed and purified as described previously (Zimniak et al., 2009)
B4: Bim1 (as used in analytical size exclusion chromatography) (natural protein, budding yeast, UniProt P40013 1-344, looked up)
chain: B3 chain
notes: Bim1, the EB1 homologue of budding yeast; source: recombinant; expressed and purified as described previously (Zimniak et al., 2009)
B5: GST-Bim1^185–344 (domain or fragment, budding yeast, UniProt P40013 185-344, looked up)
chain: IQAELTKSQETIGSLNEEIEQYKGTVSTLEIEREFYFNKLRDIEILVHTTQDLINEGVYKFNDETITGHGNGNGGALLRFVKKVESILYATAEGFEMNDGEDELNDKNLGEHGTVPNQGGYANSNGEVNGNEGSNHDVIMQNDEGEVGVSNNLIIDEETF
notes: also called C-terminal EB homology domain of Bim1; source: recombinant; expressed and purified as described previously (Zimniak et al., 2009)

Key:
[1] = molecular target: T1, Halo-Kar3 (full-length Kar3 fused to a …); assay: co-IP; two subunits co-overexpressed in S. cerevisiae; FLAG-tagged subunit bound to M2 anti-FLAG affinity agarose (lysis buffer 300 mM NaCl, washes 150 mM NaCl), HaloTag labelled on the resin, eluted with 3xFLAG peptide; Coomassie SDS-PAGE and fluorescence of the Halo-Kar3 subunit; details: partners not purified
[2] = molecular target: T2, recombinant full-length Ndc80 complex (Ndc80p-6xHis/Nuf2p-EGFP and Spc24p/6xHis/Spc25p) (UniProt P40460 1-691; P33895 1-451; Q04477 1-213; P40014 1-221); assay: in vitro recruitment to microtubules (TIRF microscopy); bulk recruitment assay in the absence of nucleotide; TMR-labeled Kar3 motors and fluorescently labeled recombinant Ndc80 complex on surface-immobilised taxol-stabilized microtubules; details: both partners purified
T2 construct: Ndc80p, budding yeast; Nuf2p, budding yeast; Spc24p, budding yeast; Spc25p, budding yeast; also called Ndc80-eGFP complex; Ndc80 kinetochore complex; source: recombinant; expression and purification as described previously (Lampert et al., 2013; Lampert et al., 2010); copies: + + +
T2 sequence (P40460 whole entry, chain 1 of 4): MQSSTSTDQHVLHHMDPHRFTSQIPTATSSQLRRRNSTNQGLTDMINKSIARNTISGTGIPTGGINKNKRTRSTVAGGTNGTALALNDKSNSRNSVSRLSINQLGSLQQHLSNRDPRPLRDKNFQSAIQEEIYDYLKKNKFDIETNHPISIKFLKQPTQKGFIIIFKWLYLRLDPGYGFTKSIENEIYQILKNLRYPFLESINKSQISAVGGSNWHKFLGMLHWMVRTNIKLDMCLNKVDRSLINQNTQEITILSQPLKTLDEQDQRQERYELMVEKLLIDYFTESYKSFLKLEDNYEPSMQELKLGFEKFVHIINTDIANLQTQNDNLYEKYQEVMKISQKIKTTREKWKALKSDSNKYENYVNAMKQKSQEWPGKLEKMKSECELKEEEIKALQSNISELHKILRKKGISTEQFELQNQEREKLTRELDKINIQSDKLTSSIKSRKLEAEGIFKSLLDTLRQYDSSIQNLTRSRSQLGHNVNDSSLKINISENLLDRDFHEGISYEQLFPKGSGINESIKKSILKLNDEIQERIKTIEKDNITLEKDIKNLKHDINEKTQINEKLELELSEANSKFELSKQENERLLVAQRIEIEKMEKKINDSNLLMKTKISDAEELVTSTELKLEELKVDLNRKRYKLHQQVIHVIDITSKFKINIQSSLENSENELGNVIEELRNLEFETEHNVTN
T2 sequence (P33895 whole entry, chain 2 of 4): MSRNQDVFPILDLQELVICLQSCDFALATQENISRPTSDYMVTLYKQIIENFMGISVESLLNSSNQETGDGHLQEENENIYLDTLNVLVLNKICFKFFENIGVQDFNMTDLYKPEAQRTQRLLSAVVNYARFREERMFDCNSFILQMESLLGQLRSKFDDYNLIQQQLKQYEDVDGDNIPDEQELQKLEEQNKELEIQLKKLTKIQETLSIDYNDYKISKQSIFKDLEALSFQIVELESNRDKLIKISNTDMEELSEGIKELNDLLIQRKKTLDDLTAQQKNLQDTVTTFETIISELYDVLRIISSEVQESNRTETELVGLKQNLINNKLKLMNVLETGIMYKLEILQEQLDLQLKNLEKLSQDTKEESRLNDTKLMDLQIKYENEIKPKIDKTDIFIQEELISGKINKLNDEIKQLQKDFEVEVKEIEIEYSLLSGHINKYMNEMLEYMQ
T2 sequence (Q04477 whole entry, chain 3 of 4): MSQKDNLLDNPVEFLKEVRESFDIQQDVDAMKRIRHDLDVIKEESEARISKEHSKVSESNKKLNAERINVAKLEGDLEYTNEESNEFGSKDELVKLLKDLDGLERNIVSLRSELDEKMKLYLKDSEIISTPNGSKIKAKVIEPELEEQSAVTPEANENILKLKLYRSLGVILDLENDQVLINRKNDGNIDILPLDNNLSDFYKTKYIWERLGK
T2 sequence (P40014 whole entry, chain 4 of 4): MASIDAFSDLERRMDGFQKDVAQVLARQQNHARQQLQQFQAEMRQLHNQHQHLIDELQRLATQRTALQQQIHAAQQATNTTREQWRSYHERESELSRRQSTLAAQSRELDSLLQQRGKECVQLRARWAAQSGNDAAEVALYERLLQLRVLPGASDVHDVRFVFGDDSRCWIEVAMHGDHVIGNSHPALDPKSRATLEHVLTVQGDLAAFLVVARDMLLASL

[3] = molecular target: B2; assay: pull-down; 0.1–1 μM GST-tagged bait immobilised on glutathione sepharose; binding partner at a constant 0.5–1 μM; 25 mM Hepes pH 7.2, 250 mM NaCl, 1 mM MgCl2, 1 mM EGTA, 0.5 mM DTT, 0.05% NP-40; 1 hr at 4°C; SDS-PAGE, Coomassie; details: both partners purified
[4] = molecular target: B2; assay: SEC; analytical size exclusion chromatography of Cik1–Kar3 and Bim1 individually or in combination; details: both partners purified

B1
binding result [1]: binds

B2
binding result [2]: binds

B3
binding result [3]: binds

B4
binding result [4]: binds

B5
binding result [3]: binds
